Patent US20150079112A1 (SAMSUNG ELECTRONICS, published 2015)
Changes are numbered by the printed parent chain.

Columns and labels:
Assay in all cases: ELISA, coated antibody 1000 nM, 250 ng FLAG-tagged mutant Ang2, anti-FLAG-HRP, OD450
[1] = biological target: T1, mutant Ang2 protein, N467 substituted with alanine, FLAG-tagged at its N-terminal (human, UniProt O15123 19-496, limits assumed)
T1 sequence: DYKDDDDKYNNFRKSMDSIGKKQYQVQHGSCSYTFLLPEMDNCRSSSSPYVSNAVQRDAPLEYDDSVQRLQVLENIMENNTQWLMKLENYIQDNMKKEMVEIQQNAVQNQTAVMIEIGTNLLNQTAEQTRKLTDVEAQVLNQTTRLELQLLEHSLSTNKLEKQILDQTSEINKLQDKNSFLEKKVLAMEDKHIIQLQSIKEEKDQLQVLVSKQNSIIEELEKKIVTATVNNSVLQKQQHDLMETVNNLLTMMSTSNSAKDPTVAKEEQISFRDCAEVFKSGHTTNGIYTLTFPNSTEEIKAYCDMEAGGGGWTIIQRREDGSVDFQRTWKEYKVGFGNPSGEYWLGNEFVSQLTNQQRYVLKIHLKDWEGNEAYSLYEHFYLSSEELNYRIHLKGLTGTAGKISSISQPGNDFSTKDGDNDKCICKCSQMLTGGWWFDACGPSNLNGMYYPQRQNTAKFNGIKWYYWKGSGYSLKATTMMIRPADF
Experimental: (§1) Each well of a 96-well MaxiSorp™ flat-bottom plate (Nunc) was coated with 50 ul (microliter) of 1000 nM antibody. Then, the plate was washed five times with 0.05% (v/v) Tween-20-containing PBS (PBST) and blocked with 1% (v/v) BSA-containing PBS at a room temperature for 2 hours. 250 ng of each mutant Ang2 protein obtained by substituting S417, Q418, P419, N421, I434, D448, A449, P452, Y460, N467, K468, or F469 residue of Ang2 protein tagged with a FLAG sequence ([…], Sigma) at its N-terminal with alanine was added to each well of the plate, which was then allowed to react at a room temperature for 2 hours.
(§2) The plate was washed five times with 0.05% (v/v) Tween-20 containing PBS, reacted with an anti-FLAG antibody (SIGMA) conjugated with HRP which was diluted in 1% (v/v) BSA-containing PBS at a ratio of 1:5,000 (v/v) at a room temperature for 1 hour, and washed five times with 0.1% (v/v) Tween-20-containing PBS.
(§3) Finally, 50 ul of TMB substrates (Cell signaling) was added to each well of the plate to induce color development at a room temperature for 3 min. and the reaction was ceased by the addition of 50 ul of Stop solution (Cell signaling) and then, OD450 values were measured on a plate reader (Molecular Devices). By comparing binding affinities with mutated Ang2 to those of unmutated Ang2, each epitope of Ang2 antibodies was identified. The thus obtained measurement results of the binding affinities (%) with mutant Ang2 against the binding affinity with the native Ang2 are shown in the following Table 8.

[2] = biological target: T2, mutant Ang2 protein, D448 substituted with alanine, FLAG-tagged at its N-terminal (human, UniProt O15123 19-496, limits assumed)
T2 sequence: T1 sequence with D438A, A457N
Experimental: as §1, §2, §3

[3] = biological target: T3, mutant Ang2 protein, P419 substituted with alanine, FLAG-tagged at its N-terminal (human, UniProt O15123 19-496, limits assumed)
T3 sequence: T1 sequence with P409A, A457N
Experimental: as §1, §2, §3

[4] = biological target: T4, mutant Ang2 protein, S417 substituted with alanine, FLAG-tagged at its N-terminal (human, UniProt O15123 19-496, limits assumed)
T4 sequence: T1 sequence with S407A, A457N
Experimental: as §1, §2, §3

B1: SAIT-ANG2-AB-m10D6 (antibody, V domains shown)
VH: DVQLQESGPGLVKPSQSLSLTCTVTGYSITSDYAWNWIRQFPGNKLEWMGYINYSGNTDYNPSLKSRSSITRDTSKNQFFLQLNSVTTGDTATYYCARGNFEGAMDYWGQGTSVTVSS
VL: SIVMTQTPKFLLVSAGDRVTITCKASQSVSNDVAWYQQKPGQSPKLLIYYASNRYPGVPDRFTGSGYGTDFTFTISTVQAEDLAVYFCQQDYSSPWTFGGGTKLEIK
notes: also called antibody 10D6; anti-Ang2 antibody (10D6)
binding affinity (%) with mutant Ang2 against the binding affinity with the native Ang2 [1]: 107%
binding affinity (%) with mutant Ang2 against the binding affinity with the native Ang2 [2]: 105%
binding affinity (%) with mutant Ang2 against the binding affinity with the native Ang2 [3]: 41.1%
binding affinity (%) with mutant Ang2 against the binding affinity with the native Ang2 [4]: 101%
